Data on 167 variants can be found in the RNAGym collection of RNA variant scans (doi:10.7554/elife.80360).

B1: HDV Ribozyme (parent)
chain: GGCCGGCAUGGUCCCAGCCUCCUCGCUGGCGCCGGCUGGGCAACAUUCCGAGGGGACCGUCCCCUCGGUAAUGGCGAAUGGGACCCA

This data set covers variants of B1. Briefly: self-cleavage, relative activity (ratio to wild type); higher = more cleavage; co-transcriptional.
For G17C A43G, the self-cleavage worked out at 0.

As to G17C A43U, the self-cleavage amounted to 0.115. Then G17C C21G, with 0.145; and G17A C22G, with 0.0573; and A16U C86A, with 1.03.

Turning to A16U G54C, the self-cleavage was found to be 0.955. Then A16U G54A, with 0.795. Then A16U G54U, with 0.771; and G17U A78C, with 0.131; and G17U A78U, with 0.0739.

With A16U A71U, the self-cleavage was 0.877. Under A16U A71G stands 0.782; under G17C U37G, 0. Then G17C U37C, with 0.344; and G17C U37A, with 0.

For the variant A16U C62U, the self-cleavage is 1.04. Take A16U C62G: the self-cleavage stood at 0.575. For the variant G17A A42U, the self-cleavage came to 0.119. Under G17A A42C stands 0.229; under G17C C86U, 0.237. Then G17U C48U, with 0.458; and A16U C66A, with 0.831; and A16U C66G, with 1.26. G17C C44G: the self-cleavage was found to be 0.0723. Then G17C C44A, with 0.

For G17A G53A, the self-cleavage was found to be 1.02. Under G17A G53C stands 0.831. In the case of A16U G17U, the self-cleavage turned out to be 0.589. Consider A16U G17C, for which the self-cleavage came to 0.68.

As to A16U U20G, the self-cleavage was found to be 0.0791. Then G17A A43C, with 0.0369; and A16U G38C, with 0. Under G17A C57U stands 0.727.

With G17A C57A, the self-cleavage came to 0.965. G17A U65A: the self-cleavage was determined as 0.752.

On to G17A U65G, for which the self-cleavage was found to be 0.773. Consider G17A U65C, for which the self-cleavage came to 0.671.

Take A16U U27C: the self-cleavage amounted to 0.587. Then A16U U27A, with 0.697; and A16U C18G, with 0.227. Then A16U C18U, with 0.427. Then A16U A83C, with 0.575; and A16U C57G, with 1.22. In the case of A16U C58A, the self-cleavage turned out to be 1.09. Under A16U C58U stands 0.962. Then G17A C62G, with 0.633; and G17A C62A, with 0.886. On to G17U C49U, for which the self-cleavage was 0.356.

With G17U C49G, the self-cleavage worked out at 0.356. In the case of G17A G80U, the self-cleavage stood at 0.198. In the case of G17A G80A, the self-cleavage worked out at 0.205. For G17A A45G, the self-cleavage was found to be 0.755. For G17A A45U, the self-cleavage is 0.696. Take G17A A70U: the self-cleavage is 0.616. As for G17C G38U, the self-cleavage was 0.0898. Under A16U G35U stands 0.208; under A16U G35A, 0.342; under G17C C57A, 0.437. Regarding G17A G50C, the self-cleavage was determined as 0.502. Then G17A G50U, with 0.815; and G17C G34U, with 0.0415; and G17C G34A, with 0.102. Consider G17U A42U, for which the self-cleavage was 0.089. For the variant G17U A42C, the self-cleavage amounted to 0.125. Regarding G17U A42G, the self-cleavage was 0.0489. Then G17C G81U, with 0.193. With G17U C18U, the self-cleavage was determined as 0.189. Then G17U C18A, with 0.0978. Under G17C C75G stands 0.111; under G17C C75A, 0.0536; under G17C G25A, 0.131. Consider G17C G25C, for which the self-cleavage was 0.0475. Then G17U A56C, with 0.415; and G17A G73C, with 0.0615; and G17A G55C, with 0.742. On to G17C C85A, for which the self-cleavage was 0.388. Then G17C C85U, with 0.156.

With G17C C85G, the self-cleavage came out at 0.185.

Turning to G17A G28A, the self-cleavage was 0. As to A16U G81C, the self-cleavage was 0.342. As for A16U G81U, the self-cleavage turned out to be 0.554. On to G17C C66U, for which the self-cleavage came out at 0.156.

On to G17U A43U, for which the self-cleavage was found to be 0.185. For G17U A43C, the self-cleavage is 0.203. In the case of G17A G39U, the self-cleavage was 0.197. For G17A G39A, the self-cleavage was determined as 0.095. Under G17A U47A stands 0.554; under G17A U47C, 0.587. Under A16U C41U stands 0.997; under G17U C57U, 0.415. In the case of G17U C57G, the self-cleavage was 0.464.

In the case of G17C U79A, the self-cleavage is 0.26.

Consider G17C U79C, for which the self-cleavage is 0.427.

With G17C U79G, the self-cleavage turned out to be 0.128.

Regarding G17C C61U, the self-cleavage was 0.383. As to G17A A87C, the self-cleavage came to 0.716.

Consider G17A A87G, for which the self-cleavage is 0.745. Take G17C C22G: the self-cleavage was found to be 0.208. In the case of G17C C22A, the self-cleavage was found to be 0. Under G17C G82U stands 0; under G17C G82A, 0.147; under G17A C66G, 0.652. Under A16U C21A stands 0.185. For A16U C21G, the self-cleavage came to 0.0665. With G17A G68A, the self-cleavage was 0.76. In the case of G17A G68U, the self-cleavage was 0.659.

With G17C C58U, the self-cleavage came to 0.302.

With G17C C58G, the self-cleavage was determined as 0.32.

Consider G17C G40A, for which the self-cleavage amounted to 0.19. G17C G40U: the self-cleavage was 0.196. Under G17A C85U stands 0.641; under G17A C85G, 0.814. For G17U C36G, the self-cleavage was 0.

With G17U C36A, the self-cleavage was determined as 0.0665.

G17U A87C: the self-cleavage was 0.389. For G17U C61A, the self-cleavage amounted to 0.456. Under G17A U60C stands 0.522; under G17C C18U, 0.0923. Take G17C C18G: the self-cleavage came out at 0.

For the variant G17U C19G, the self-cleavage was 0. In the case of G17U C19A, the self-cleavage was 0.166. In the case of G17U C19U, the self-cleavage amounted to 0.199. Consider A16U C85U, for which the self-cleavage stood at 1.03.

For G17U C22U, the self-cleavage was 0.0959. Under G17U C22G stands 0.095. Under A16U G29C stands 0.104; under A16U G29A, 0.0378; under A16U G29U, 0.113. With G17A G74U, the self-cleavage was determined as 0.197. Then G17A G74C, with 0.0346; and G17C A87G, with 0.244. Under G17C A78U stands 0.18; under G17C A78G, 0.0536. Then G17C A78C, with 0.0755; and A16U G73U, with 0.237; and A16U G50C, with 1.03. Turning to A16U G50U, the self-cleavage turned out to be 0.889. On to G17C C24U, for which the self-cleavage came out at 0.106. For A16U C26G, the self-cleavage was determined as 0.831. Take G17A C26A: the self-cleavage was found to be 0.798. In the case of G17A C26G, the self-cleavage is 0.793. For A16U A87U, the self-cleavage stood at 0.862. Then A16U G67C, with 0.978; and G17C C19A, with 0.0519; and G17C C19G, with 0. Turning to G17A C19U, the self-cleavage is 0.119. Then G17U, with 0.548; and G17A, with 0.718. Under G17C stands 0.338; under G17A G82U, 0.346. Then G17A G82A, with 0.272; and G17A G82C, with 0.166. As for G17A G54U, the self-cleavage stood at 0.554.

With G17C U27A, the self-cleavage came out at 0.222. As for G17C C63A, the self-cleavage was determined as 0.306. On to G17C C63G, for which the self-cleavage was 0.244. Consider G17C G68U, for which the self-cleavage was determined as 0.425. Then G17C G68A, with 0.297; and G17C G68C, with 0.227; and A16U A45G, with 0.982.

Take G17C U46C: the self-cleavage turned out to be 0.0791. Turning to G17A G59U, the self-cleavage amounted to 0.852.

On to A16U C49G, for which the self-cleavage turned out to be 0.91. Turning to A16U C49U, the self-cleavage was 0.918.

Consider A16U C49A, for which the self-cleavage is 0.895. For A16U U37C, the self-cleavage came out at 0.929. Then A16U U37G, with 0.
